For one molecule, Kd results are on record in publication PMC10180619 (Nature Communications, 2023).

A word on the Kd: it is the concentration at which binding is half-saturated. A lower Kd goes with tighter binding.

Assay [1] deals with SARS-CoV-2 Beta receptor binding domain (SARS-CoV-2, Beta variant (B.1.351), K417N | E484K | N501Y, biotin (EZ-Link Sulfo-NHS-LC-Biotin, average of four biotins per RBD molecule)). As to the kind of experiment: BLI. The settings on record: both partners purified.
The target of assay [2] is SARS-CoV-2 Delta receptor binding domain (SARS-CoV-2, Delta variant (B.1.617.2), L452R | T478K, biotin (EZ-Link Sulfo-NHS-LC-Biotin, average of four biotins per RBD molecule)). Briefly: BLI. The following applies: both partners purified.

B1: ADI-81654 (Fab, V domains shown)
VH: QVQLKQSGPTLVKPTQTLTLTCTFSGFSLSTYGVGVGWIRQPPGKALEWLALIYYDDDKRYSPSLKSRLTITKDTSQNQVVLTMTNMDPVDTATYYCARHTIATIFDFDSWGQGTLVTVSS
VL: QSVLTQPASVSGSPGQSITISCTGTSSDVGGHNYVSWYQQHPGKAPKLMIYEVSNRPSGVSNRFSGSKSGNTASLTISGLQAEDEADYSCSSYASSTSPVVFGGVTKLTVL
Regarding B1, the Kd was 2.56 nM in assay [1] and 1.83 nM in assay [2].
